Molecular target: F-actin (unlabeled) (rabbit, UniProt P68135 1-377)
Assay: co-sedimentation

B1: His6–l-afadin-C (aa 1631–1829) (domain or fragment)
chain: DRVRQEEDGRHQEEERVKRDAEEKRRQEEGYYSRLEAERRRQHEEAARRLLEPEEPGLSRPPLPQDYEPPSQSSAPSAPPPPPQRNASYLKTQVLSPDSLFTAKFVAYDDDDEEENYVPAGPNSYSGSAGTTAGTYDAPRDTREKLSRSQDADLPGSSGAPENLTFRERQRLFSQGQDVSDKVKASRKLTELENELNTK
Question: For B1, which “stoichiometry N” value is on record?
Answer: ~500 actin molecules per His6–l-afadin-C molecule

Source: publication PMC2139800 (The Journal of Cell Biology, 1997)
